The labels stand for the following.
B1: POU domain, class 2, transcription factor 3, residues 186 to 260; numbered along this chain, Q9UKI9 (parent)
chain: SDLEELEKFAKTFKQRRIKLGFTQGDVGLAMGKLYGNDFSQTTISRFEALNLSFKNMCKLKPLLEKWLNDAESSP

± gives the uncertainty stated by the source.

This data set covers variants of B1. As to the kind of experiment: abundance fitness (aPCA) (normalised: wild type 0, dead -1); higher = more abundant; growth selection in yeast, the domain comes from the species named. As to conditions: Homo sapiens.
For SDLEELEKFAKTFKQRRIKLGFTQGDVGLAMGKLYGNDFSQTTISRFEALNLSFKNMCKLKPLLEKWLNDAESSA [P75A], the abundance fitness was 0.044 ± 0.066.

Turning to SDLEELEKFAKTFKQRRIKLGFTQGDVGLAMGKLYGNDFSQTTISRFEALNLSFKNMCKLKPLLEKWLNDAEYSP [S73Y], the abundance fitness was -0.121 ± 0.078.

With SDLEELEKFAKTFKQRRIKLGFTQGDVGLAMGKLYGNDFSQTTISRFEALNLSFKNMCKLKPLLEKWLNDAEPSP [S73P], the abundance fitness was -0.077 ± 0.065.

Take SDLEELEKFAKTFKQRRIKLGFTQGDVGLAMGKLYGNDFSQTTISRFEALNLSFKNMCKLKPLLEKWLNDAECSP [S73C]: the abundance fitness was -0.087 ± 0.057.

As for SDLEELEKFAKTFKQRRIKLGFTQGDVGLAMGKLYGNDFSQTTISRFEALNLSFKNMCKLKPLLEKWLNDAEFSP [S73F], the abundance fitness is -0.077 ± 0.059.

As to SDLEELEKFAKTFKQRRIKLGFTQGDVGLAMGKLYGNDFSQTTISRFEALNLSFKNMCKLKPLLEKWLNDAEQSP [S73Q], the abundance fitness was -0.059 ± 0.047.

SDLEELEKFAKTFKQRRIKLGFTQGDVGLAMGKLYGNDFSQTTISRFEALNLSFKNMCKLKPLLEKWLNDAELSP [S73L]: the abundance fitness is -0.078 ± 0.039.

Turning to SDLEELEKFAKTFKQRRIKLGFTQGDVGLAMGKLYGNDFSQTTISRFEALNLSFKNMCKLKPLLEKWLNDAEVSP [S73V], the abundance fitness was -0.038 ± 0.039.

Turning to SDLEELEKFAKTFKQRRIKLGFTQGDVGLAMGKLYGNDFSQTTISRFEALNLSFKNMCKLKPLLEKWLNDAETSP [S73T], the abundance fitness was -0.049 ± 0.051.

Take SDLEELEKFAKTFKQRRIKLGFTQGDVGLAMGKLYGNDFSQTTISRFEALNLSFKNMCKLKPLLEKWLNDAEESP [S73E]: the abundance fitness was -0.04 ± 0.043.

As to SDLEELEKFAKTFKQRRIKLGFTQGDVGLAMGKLYGNDFSQTTISRFEALNLSFKNMCKLKPLLEKWLNDAERSP [S73R], the abundance fitness is -0.113 ± 0.031.

With SDLEELEKFAKTFKQRRIKLGFTQGDVGLAMGKLYGNDFSQTTISRFEALNLSFKNMCKLKPLLEKWLNDAEGSP [S73G], the abundance fitness was -0.023 ± 0.03.

Consider SDLEELEKFAKTFKQRRIKLGFTQGDVGLAMGKLYGNDFSQTTISRFEALNLSFKNMCKLKPLLEKWLNDAEASP [S73A], for which the abundance fitness was -0.012 ± 0.044.

In the case of SDLEELEKFAKTFKQRRIKLGFTQGDVGLAMGKLYGNDFSQTTISRFEALNLSFKNMCKLKPLLEKWLNDAEWSP [S73W], the abundance fitness was -0.173 ± 0.038.

On to SDLEELEKFAKTFKQRRIKLGFTQGDVGLAMGKLYGNDFSQTTISRFEALNLSFKNMCKLKPLLEKWLNDAENSP [S73N], for which the abundance fitness is 0.003 ± 0.061.

On to SDLEELEKFAKTFKQRRIKLGFTQGDVGLAMGKLYGNDFSQTTISRFEALNLSFKNMCKLKPLLEKWLNDAEKSP [S73K], for which the abundance fitness is -0.06 ± 0.058.

Regarding SDLEELEKFAKTFKQRRIKLGFTQGDVGLAMGKLYGNDFSQTTISRFEALNLSFKNMCKLKPLLEKWLNDAEMSP [S73M], the abundance fitness was -0.088 ± 0.047.

For the variant SDLEELEKFAKTFKQRRIKLGFTQGDVGLAMGKLYGNDFSQTTISRFEALNLSFKNMCKLKPLLEKWLNDAEHSP [S73H], the abundance fitness is -0.017 ± 0.066.

As to SDLEELEKFAKTFKQRRIKLGFTQGDVGLAMGKLYGNDFSQTTISRFEALNLSFKNMCKLKPLLEKWLNDAEDSP [S73D], the abundance fitness was -0.003 ± 0.067.

Consider SDLEELEKFAKTFKQRRIKLGFTQGDVGLAMGKLYGNDFSQTTISRFEALNLSFKNMCKLKPLLEKWLNDAWSSP [E72W], for which the abundance fitness is -0.179 ± 0.041.

Take SDLEELEKFAKTFKQRRIKLGFTQGDVGLAMGKLYGNDFSQTTISRFEALNLSFKNMCKLKPLLEKWLNDAYSSP [E72Y]: the abundance fitness was -0.186 ± 0.1.

SDLEELEKFAKTFKQRRIKLGFTQGDVGLAMGKLYGNDFSQTTISRFEALNLSFKNMCKLKPLLEKWLNDAESTP [S74T]: the abundance fitness is -0.034 ± 0.045.

On to SDLEELEKFAKTFKQRRIKLGFTQGDVGLAMGKLYGNDFSQTTISRFEALNLSFKNMCKLKPLLEKWLNDAESDP [S74D], for which the abundance fitness was -0.065 ± 0.075.

As for SDLEELEKFAKTFKQRRIKLGFTQGDVGLAMGKLYGNDFSQTTISRFEALNLSFKNMCKLKPLLEKWLNDAESGP [S74G], the abundance fitness was -0.084 ± 0.032.

For SDLEELEKFAKTFKQRRIKLGFTQGDVGLAMGKLYGNDFSQTTISRFEALNLSFKNMCKLKPLLEKWLNDAESLP [S74L], the abundance fitness was -0.119 ± 0.042.

As for SDLEELEKFAKTFKQRRIKLGFTQGDVGLAMGKLYGNDFSQTTISRFEALNLSFKNMCKLKPLLEKWLNDAESMP [S74M], the abundance fitness was -0.131 ± 0.075.

As for SDLEELEKFAKTFKQRRIKLGFTQGDVGLAMGKLYGNDFSQTTISRFEALNLSFKNMCKLKPLLEKWLNDAESKP [S74K], the abundance fitness was 0.036 ± 0.07.

For SDLEELEKFAKTFKQRRIKLGFTQGDVGLAMGKLYGNDFSQTTISRFEALNLSFKNMCKLKPLLEKWLNDAESWP [S74W], the abundance fitness is -0.059 ± 0.057.

For the variant SDLEELEKFAKTFKQRRIKLGFTQGDVGLAMGKLYGNDFSQTTISRFEALNLSFKNMCKLKPLLEKWLNDAESHP [S74H], the abundance fitness came out at 0.058 ± 0.081.

For the variant SDLEELEKFAKTFKQRRIKLGFTQGDVGLAMGKLYGNDFSQTTISRFEALNLSFKNMCKLKPLLEKWLNDAESIP [S74I], the abundance fitness was -0.033 ± 0.081.

Consider SDLEELEKFAKTFKQRRIKLGFTQGDVGLAMGKLYGNDFSQTTISRFEALNLSFKNMCKLKPLLEKWLNDAESCP [S74C], for which the abundance fitness was -0.009 ± 0.06.

On to SDLEELEKFAKTFKQRRIKLGFTQGDVGLAMGKLYGNDFSQTTISRFEALNLSFKNMCKLKPLLEKWLNDAESVP [S74V], for which the abundance fitness worked out at 0.039 ± 0.033.

As to SDLEELEKFAKTFKQRRIKLGFTQGDVGLAMGKLYGNDFSQTTISRFEALNLSFKNMCKLKPLLEKWLNDAESEP [S74E], the abundance fitness is -0.172 ± 0.07.

Turning to SDLEELEKFAKTFKQRRIKLGFTQGDVGLAMGKLYGNDFSQTTISRFEALNLSFKNMCKLKPLLEKWLNDAESQP [S74Q], the abundance fitness is -0.017 ± 0.055.

SDLEELEKFAKTFKQRRIKLGFTQGDVGLAMGKLYGNDFSQTTISRFEALNLSFKNMCKLKPLLEKWLNDAESRP [S74R]: the abundance fitness is -0.038 ± 0.036.

As to SDLEELEKFAKTFKQRRIKLGFTQGDVGLAMGKLYGNDFSQTTISRFEALNLSFKNMCKLKPLLEKWLNDAESFP [S74F], the abundance fitness is -0.08 ± 0.11.

As for SDLEELEKFAKTFKQRRIKLGFTQGDVGLAMGKLYGNDFSQTTISRFEALNLSFKNMCKLKPLLEKWLNDAESYP [S74Y], the abundance fitness was -0.107 ± 0.079.

These data come from the Human Domainome abundance scans (Beltran et al. 2025).
